Where no end group is shown, it is not given here. The star is where a group is joined. Dhc(Pam)2 = S-[2,3-bis(palmitoyl)oxy-(R)-propyl]-cysteine, CCCCCCCCCCCCCCCC(=O)OC[C@H](CSC[C@H](N)C(=O)*)OC(=O)CCCCCCCCCCCCCCC; PEGO = not defined here
Columns and labels:
[1] = target: human carbonic anhydrase 9 (CAIX) (human) (UniProt Q16790); assay: in vivo fluorescence imaging of CAIX positive MDA-mb-231 tumour 24 h after injection; competitor unlabeled CAIX mAb
[2] = target: T1, human Toll-like receptor 2 (TLR2) (human, UniProt O60603 21-784); assay: Eu TRF competition binding; competitor compound 11
[3] = target: T1, human Toll-like receptor 2 (TLR2); assay: Eu TRF competition binding on HEK-293/hTLR2 cells; competitor 90 nM compound 11
[4] = target: T1, human Toll-like receptor 2 (TLR2); assay: in cyto competition binding assay
[5] = target: T1, human Toll-like receptor 2 (TLR2); assay: Eu TRF competition binding on SU.86.86 cells; competitor 90 nM compound 11
[6] = target: T1, human Toll-like receptor 2 (TLR2); assay: cell-based or functional assay
[7] = target: T1, human Toll-like receptor 2 (TLR2); assay: Eu TRF saturation binding on TLR2 expressing cells
[8] = target: T1, human Toll-like receptor 2 (TLR2); assay: Eu TRF saturation binding on SU.86.86 cells
[9] = target: T1, human Toll-like receptor 2 (TLR2); assay: Eu TRF saturation binding on HEK-293/hTLR2 cells
[10] = target: T1, human Toll-like receptor 2 (TLR2); assay: time-resolved fluorescence saturation binding assay
[11] = target: T1, human Toll-like receptor 2 (TLR2); assay: Eu TRF saturation binding on HEK-293/hTLR2 cells; non-specific binding with 1 µM Pam2CSK4
[12] = target: T1, human Toll-like receptor 2 (TLR2); assay: Eu TRF saturation binding on Capan-I cells
[13] = target: T1, human Toll-like receptor 2 (TLR2); assay: Eu TRF saturation binding on Capan-I cells; non-specific binding with 1 µM Pam2CSK4
[14] = target: T1, human Toll-like receptor 2 (TLR2); assay: Eu TRF saturation binding on SU.86.86 cells; non-specific binding with 1 µM Pam2CSK4
[15] = target: T1, human Toll-like receptor 2 (TLR2); assay: time-resolved fluorescence competitive binding assay
[16] = target: T1, human Toll-like receptor 2 (TLR2); assay: in vivo fluorescence imaging of TLR2 expressing SU.86.86 xenografts 24 h post-injection; competitor 20-fold excess Pam2CSK4

T1 sequence (O60603 21-784): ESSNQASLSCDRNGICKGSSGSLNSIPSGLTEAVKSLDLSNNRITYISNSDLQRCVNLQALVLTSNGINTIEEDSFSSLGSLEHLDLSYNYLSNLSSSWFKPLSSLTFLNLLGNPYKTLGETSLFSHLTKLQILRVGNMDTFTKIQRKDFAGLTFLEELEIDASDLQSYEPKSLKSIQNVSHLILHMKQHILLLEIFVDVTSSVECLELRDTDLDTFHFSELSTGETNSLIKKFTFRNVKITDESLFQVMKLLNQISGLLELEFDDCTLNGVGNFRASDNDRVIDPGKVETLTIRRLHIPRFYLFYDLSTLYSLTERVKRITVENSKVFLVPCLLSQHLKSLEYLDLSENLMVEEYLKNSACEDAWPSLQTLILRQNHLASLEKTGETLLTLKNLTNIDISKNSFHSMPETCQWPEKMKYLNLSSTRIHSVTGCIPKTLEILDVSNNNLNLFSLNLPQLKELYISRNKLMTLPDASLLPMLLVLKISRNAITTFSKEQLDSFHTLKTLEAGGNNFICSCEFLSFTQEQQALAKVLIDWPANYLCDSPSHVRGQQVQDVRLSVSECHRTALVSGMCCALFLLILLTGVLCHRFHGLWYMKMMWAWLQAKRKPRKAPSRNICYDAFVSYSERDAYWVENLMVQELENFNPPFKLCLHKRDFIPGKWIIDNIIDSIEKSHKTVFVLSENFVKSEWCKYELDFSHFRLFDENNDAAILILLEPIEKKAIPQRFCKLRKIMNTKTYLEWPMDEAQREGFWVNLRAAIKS

CA9Ab-680 (anti-human CAIX monoclonal antibody, Clone 303123, R&D systems, conjugated to VivoTag-S 680)
fold decrease of probe fluorescence in the tumour after blocking with unlabeled CAIX mAb [1]: 1.7 times

Compound 10: Ac-PEGO-Cys(S-[2,3-bis(palmitoyl)oxy-(R)-propyl])-Gly-DSer-PEGO-NH2 (peptide)
Ki [2]: < 100 nM | Ki [3]: 25 nM | Ki [4]: 24 nM | Ki [5]: 91 nM | fold of enhancement of luminescence at 1 µg/mL vs SAA at 10 µg/mL [6]: 5.2 fold | fold of enhancement of luminescence vs SAA at 1 µg/mL [6]: 14 fold

Compound 11: Eu-DTPA-PEGO-Cys(S-[2,3-bis(palmitoyl)oxy-(R)-propyl])-Gly-DSer-PEGO-NH2 (peptide)
Kd [7]: < 100 nM | Bmax [8]: 270000 AFU | Bmax [9]: 114000 AFU | Kd [10]: 30 nM | Kd [11]: 34 nM | Bmax [12]: 951000 AFU | Kd [13]: 78 nM | Kd [14]: 74 nM

Compound 12: Mpr-PEGO-Cys(S-[2,3-bis(palmitoyl)oxy-(R)-propyl])-Gly-DSer-PEGO-NH2 (peptide)
Ki [2]: < 100 nM | Ki [5]: 25 nM

Compound 13: IRDye800CW-Mpr-PEGO-Cys(S-[2,3-bis(palmitoyl)oxy-(R)-propyl])-Gly-DSer-PEGO-NH2 (peptide)
Ki [2]: < 100 nM | Ki [3]: 11 nM | Ki [15]: 10 nM | Ki [5]: 67 nM | unblocked/blocked tumor fluorescence (fold) [16]: 1.94 fold

SRFDEDDLE-NH2 (not fully specified (some residues, N-terminus))
fold of enhancement of luminescence at 1 µg/mL vs SAA at 10 µg/mL [6]: 4.2 fold | fold of enhancement of luminescence vs SAA at 1 µg/mL [6]: 11 fold

{Ac-PEGO-Dhc(Pam)2}-GSQNLASLEE-NH2 (reading uncertain)
fold of enhancement of luminescence at 1 µg/mL vs SAA at 10 µg/mL [6]: 4.8 fold | fold of enhancement of luminescence vs SAA at 1 µg/mL [6]: 13 fold

— patent publication US20140161725A1 (H LEE MOFFITT CANCER CENTER AND RESEARCH INSTITUTE, published 2014)
